For assay [1], the target named is FG domain comprising 52 GLFG 12mer repeat units. Nature of the assay: FG phase partitioning (confocal microscopy); FG domain phase-separated by dilution from guanidinium hydrochloride, then fluorescent probe added; 50 mM Tris/HCl pH 7.5, 250 mM NaCl, 1 mM IP6; scanned after 1 h; partition coefficient = signal in the FG particle : outside.
Assay [2] addresses disulfide-stabilized HIV-1 CA hexamer (CA-P1A, A14C, E45C, W184A, M185A) (HIV-1). The assay can be described thus: SEC; Superdex 200 increase, 20 mM Tris/HCl pH 8.0, 150 mM NaCl, 100 µM IP6; peak fraction seen by negative-stain EM; disulfide-stabilised hexamer. Background: Size exclusion chromatography separates by hydrodynamic size, large species first.

mCherry: the partition coefficient (in:out) in assay [1] is less than 0.05. “capsid-like particles (CLPs) assembled from wild-type CA, with encapsulated mCherry (complex)” had a partition coefficient (in:out) in assay [1] greater than 750. The same measure, in the same setting: the value for “40 nm capsid spheres (CA-P1A/N21C/A22C) labelled with CA–EGFP (complex)” was greater than 300. Take “disulfide-stabilized HIV-1 CA hexamer (CA-P1A, A14C, E45C, W184A, M185A) (complex)”: the stoichiometry N (as a rule, a count of units in the complex or per binding partner) in assay [2] was determined as 6.
